Measured values taken from US20250295802A1, “HER3 ANTIBODY-DRUG CONJUGATE AND USE THEREOF” (DUALITY BIOLOGICS (SUZHOU) CO., LTD., priority 2022, published 2025).
Several values for one entry are separate records, joined by “and”; a condition that tells them apart may be missing. Equal entries are not always repeated. Values belong to the molecule of their own block, whether it stands above or below them.

Tests used:
human HER2-ex-huFc = target: T1, human HER2-ex-huFc (human, UniProt P04626 23-652); experiment: ELISA on coated antigen, luminescence readout
T1 construct: extracellular domain; 'ex' is read as extracellular domain; also called huHER2; not shown: human Fc (huFc)
Method: (§1) ELISA assay: human HER2-ex-huFc, human HER3-huFc, and human EGFR-his were diluted to 2 μg/mL and 50 μL/well in a 96-well plate and incubated at 4° C. overnight. The plate was washed with 0.5×PBST, then incubated with 100 μL of a blocking buffer (PBS+3% BSA) at 37° C. for 2 h, and washed with 0.5×PBST. The 3F8 antibody was diluted with the blocking buffer in a 1:3 serial gradient, added at 50 μL/well, incubated at 37° C. for 40-50 min, and then washed with 0.5×PBST. […] Prior to assay, 50 μL of luminol buffer A+B was added to each well in a 1:1 mix.
(§2) The binding affinities of murine 3F8 to human HER3, HER2 and EGFR were determined by ELISA.

human EGFR-his = target: T2, human EGFR-his (human, UniProt P00533 25-645); experiment: ELISA on coated antigen, luminescence readout
T2 construct: also called huEGFR; not shown: His tag
Method: as §1, §2

[1] = target: T3, human HER2 expressed on SP2/0 cells (human, UniProt P04626 23-1255); experiment: flow cytometry (FACS) on SP2/0 cells overexpressing human HER2, PE anti-mouse secondary antibody
T3 construct: whole, on cells; also called SP2/0-HER2 cells
Method: (§3) FACS assay: the cultured cells were digested with 0.25% trypsin-EDTA and then centrifuged at 1500 rpm for 5 min. The cell pellets were regenerated into 5×10⁶ cells/mL using a PBS FACS solution containing 5% FBS and 0.2% ProClin300. 50 μL of the cell suspension was incubated with 100 μL of the primary antibody at a concentration of 1 μg/mL on ice for 1 h. The cells were washed twice with the FACS solution. The pellets were regenerated using 100 μL of a FACS solution containing goat anti-mouse IgG-PE (1:1000 dilution) and incubated on ice in the dark for 1 h. The cells were then washed twice and resuspended in 200 μL of the FACS solution.
(§4) Murine 3F8 was co-incubated with SP2/0 wild-type cells or cells overexpressing HER3, HER2 or EGFR. The binding strength was measured in a FACS instrument with a PE-anti-mouse secondary antibody.

human HER3-huFc [2] = target: T4, human HER3-huFc (human, UniProt P21860 20-643); experiment: ELISA
T4 construct: also called huHER3; not shown: human Fc (huFc)

cynomolgus monkey HER3 [3] = target: cynomolgus monkey HER3 (cynomolgus monkey, UniProt G7PIG5 20-643); experiment: ELISA
[4] = target: T5, human EGFR expressed on SP2/0 cells (human, UniProt P00533 25-1210); experiment: flow cytometry (FACS) on SP2/0 cells overexpressing human EGFR, PE anti-mouse secondary antibody
T5 construct: whole, on cells; also called SP2/0-EGFR cells
Method: as §3, §4

human HER3-huFc [5] = target: T4, human HER3-huFc; experiment: ELISA, antigen coated
Method: as §1
(§5) EC50 of murine 3F8 binding to human HER3, HER2, and EGFR was analyzed using GraphPad Prism 6.0.

mouse HER3 [6] = target: mouse HER3 (mouse, UniProt Q61526 20-641, limits assumed); experiment: ELISA on coated antigen, luminescence readout
rat HER3 [7] = target: rat HER3 (rat, UniProt Q62799 20-641, limits assumed); experiment: ELISA on coated antigen, luminescence readout
[8] = system: cells at different HER3 surface levels; experiment: Internalization of murine 3F8 by cells at different HER3 surface levels; format: cell-based
Method: Murine 3F8 was rapidly taken up by cells at different HER3 surface levels. The cells at different HER3 surface levels were incubated with murine 3F8 on ice (control) or incubated at 37° C. for 1 or 4 h. The internalization fraction was determined by subtracting the 37° C. incubated cell surface signal from the ice incubated control.

[9] = system: BT474 subcutaneous xenograft model; experiment: Tumor growth in BT474 subcutaneous xenograft model; format: in vivo, mouse; conditions: 25 mg/kg intravenously once every two weeks for three weeks; one-way analysis of variance p<0.05
Method: In vivo efficacy study: the animals were maintained and used according to the IACUC guidelines. BALC/b nude mice and NPG mice, purchased from Charles River and SPF Biotech, respectively, were housed at 25° C. in a 12-h dark/light cycle with free access to food and drink. A patient-derived xenograft (PDX) model was generated by subcutaneous implantation of cryopreserved tissue fragments. Animals were initiated with drug treat when the tumor size reached 100-200 mm^3 and were euthanized when the tumor size was 1000 mm^3. The health condition was monitored daily. Tumor size and body weight were monitored and recorded every 3 days.
The anti-HER3 antibody was effective in inhibiting tumor growth in the BT474 subcutaneous xenograft model. The anti-HER3 antibody 3F8, 3D4, or 3F8+3D4 combination was injected intravenously at 25 mg/kg once every two weeks for three weeks. Tumor size was monitored every 3-4 days. Both 3F8 and 3D4 are anti-HER3 antibodies. 3F8 is a murine antibody.

human HER2 = target: T6, human HER2 (Homo sapiens, UniProt P04626); experiment: ELISA binding to human HER2
T6 construct: human HER2-ex-huFc; human Fc (huFc)
Method: (§6) ELISA assay: human HER2-ex-huFc, human HER3-huFc, and human EGFR-his were diluted to 2 μg/mL and 50 μL/well in a 96-well plate and incubated at 4° C. overnight. The plate was washed with 0.5×PBST, then incubated with 100 μL of a blocking buffer (PBS+3% BSA) at 37° C. for 2 h, and washed with 0.5×PBST. The 3F8 antibody was diluted with the blocking buffer in a 1:3 serial gradient, added at 50 μL/well, incubated at 37° C. for 40-50 min, and then washed with 0.5×PBST. Goat anti-mouse IgG-HRP (Southern Biotech, 1030-05) was diluted at 1:20000 with the blocking buffer, added at 50 μL/well, incubated in the dark for 30 min, and then washed with 0.5×PBST. Prior to assay, 50 μL of luminol buffer A+B was added to each well in a 1:1 mix.
as §2, §5

human EGFR = target: T7, human EGFR (Homo sapiens, UniProt P00533); experiment: ELISA binding to human EGFR
T7 construct: His
Method: as §6, §2, §5

[10] = system: SP2/0 wild-type cells or cells overexpressing HER2 or EGFR; experiment: FACS binding of murine 3F8 to SP2/0 wild-type, HER2 or EGFR cells; set-up: species or system human
Method: (§7) Cell culture: SP2/0, SP2/0-HER3, SP2/0-HER2, SP2/O-EGFR, NCI-N87, MDA-MB-468, MDA-MB-453, 7901, HT29, MCF-7, and SK-BR-3 used in the study were purchased from ATCC and cultured using the appropriate media recommended by ATCC. SP2/0-EGFR, SP2/0-HER2, and SP2/0HER3 cells stably expressing human EGFR, HER2 and HER3 were generated in house.
as §3, with “5×10^6” for “5×10⁶”
as §4

[11] = system: NRG1-induced HER3 phosphorylation; experiment: NRG1-induced HER3 phosphorylation, western blot in NCI-N87, MDA-MB-468 and MDA-MB-453; format: cell-based
Method: Western blot assay: the protein separated by SDS-PAGE was transferred to a nitrocellulose membrane for Western blot. The primary antibodies used were as follows: anti-HER2 (cell signaling, Catl #: 2165S), anti-HER3 (cell signaling, Catl #: 12708), anti-p-HER3 (cell signaling, Catl #: 4791), and anti-β-actin (cell signal transduction, Catl #: 4967).
HER3 phosphorylation induced by NRG1: the cells were cultured in a 6-well plate and used for an experiment when the confluency reached 80%. On the day of the experiment, the cells were washed twice with PBS, incubated for 6 h in a serum-free medium, and then induced overnight with 10 μg/mL of the antibody. To induce HER3 phosphorylation, NRG1 was added to a working concentration of 100 ng/mL 30 min before the cells were collected for Western blot.
Murine 3F8 blocked NRG1-induced HER3 phosphorylation. NCI-N87, MDA-MB-468 and MDA-MB-453 were treated with NRG1, the HER3 ligand, to induce downstream phosphorylation of HER3.
The effect of murine 3F8 in inhibiting NRG1-induced p-HER3 was determined by western blot.

rat HER3 [12] = target: rat HER3 (Rattus norvegicus, UniProt Q62799); experiment: ELISA binding to rat HER3
Method: as §6
(§8) The species selectivity of murine 3F8 to human, monkey, rat and mouse HER3 was determined by ELISA.
(§9) EC50 of murine 3F8 binding to human, monkey, rat and mouse HER3 was analyzed using GraphPad Prism 6.0.

mouse HER3 [13] = target: mouse HER3 (Mus musculus, UniProt Q61526); experiment: ELISA binding to mouse HER3
Method: as §6, §8, §9

HER3 = target: T8, HER3 (Homo sapiens, UniProt P21860); experiment: ELISA binding to human HER3
T8 construct: human Fc (huFc)
Method: as §6, §2, §5, §8, §9

SP2/0-HER3 cells = target: T9, SP2/0-HER3 cells (Homo sapiens, UniProt P21860); experiment: FACS binding of murine 3F8 to SP2/0 cells overexpressing HER3; conditions: PE-anti-mouse secondary antibody
T9 construct: expressed in transfected cells; host or cells: SP2/0 (mouse myeloma) stably expressing human HER3
Method: as §7
as §3, with “5×10^6” for “5×10⁶”
as §4

cynomolgus monkey HER3 [14] = experiment: ELISA binding to cynomolgus monkey HER3; conditions: Table 2
Method: as §6, §8, §9

Sequence of cynomolgus monkey HER3 (cynomolgus monkey, UniProt G7PIG5 20-643) (G7PIG5 entry or part of it): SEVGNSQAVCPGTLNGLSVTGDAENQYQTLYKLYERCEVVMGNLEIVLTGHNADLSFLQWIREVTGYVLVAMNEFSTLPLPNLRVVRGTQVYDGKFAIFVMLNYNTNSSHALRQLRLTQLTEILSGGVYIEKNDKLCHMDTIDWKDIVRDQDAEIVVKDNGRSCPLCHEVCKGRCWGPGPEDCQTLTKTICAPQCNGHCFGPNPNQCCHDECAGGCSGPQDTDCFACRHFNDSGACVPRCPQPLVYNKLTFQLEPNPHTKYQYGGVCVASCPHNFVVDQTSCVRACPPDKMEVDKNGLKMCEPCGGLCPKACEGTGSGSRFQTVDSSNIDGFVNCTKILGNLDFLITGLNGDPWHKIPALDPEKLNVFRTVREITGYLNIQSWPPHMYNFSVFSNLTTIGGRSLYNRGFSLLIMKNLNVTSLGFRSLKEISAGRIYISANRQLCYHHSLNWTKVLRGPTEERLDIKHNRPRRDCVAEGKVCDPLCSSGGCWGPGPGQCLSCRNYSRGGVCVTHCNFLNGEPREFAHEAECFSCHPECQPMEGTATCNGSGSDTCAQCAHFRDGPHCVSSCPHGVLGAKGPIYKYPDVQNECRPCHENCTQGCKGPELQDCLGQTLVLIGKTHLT
Sequence of mouse HER3 (mouse, UniProt Q61526 20-641, limits assumed) (Q61526 20-641 limits assumed): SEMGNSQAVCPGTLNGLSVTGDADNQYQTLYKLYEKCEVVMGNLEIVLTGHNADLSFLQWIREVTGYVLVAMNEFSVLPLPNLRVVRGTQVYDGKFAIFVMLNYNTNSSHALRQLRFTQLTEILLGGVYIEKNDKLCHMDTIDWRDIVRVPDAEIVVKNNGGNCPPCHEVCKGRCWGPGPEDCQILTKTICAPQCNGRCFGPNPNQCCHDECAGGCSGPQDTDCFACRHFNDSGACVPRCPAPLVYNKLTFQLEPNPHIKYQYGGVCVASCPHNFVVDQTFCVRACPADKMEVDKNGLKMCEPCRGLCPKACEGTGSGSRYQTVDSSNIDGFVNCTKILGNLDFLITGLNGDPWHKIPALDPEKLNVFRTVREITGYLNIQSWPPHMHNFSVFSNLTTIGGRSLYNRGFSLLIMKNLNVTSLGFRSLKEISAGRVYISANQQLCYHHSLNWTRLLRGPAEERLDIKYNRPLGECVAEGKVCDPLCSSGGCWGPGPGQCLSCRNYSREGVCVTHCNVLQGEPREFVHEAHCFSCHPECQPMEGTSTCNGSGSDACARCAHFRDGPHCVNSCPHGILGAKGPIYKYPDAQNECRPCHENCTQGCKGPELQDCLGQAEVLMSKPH
Sequence of rat HER3 (rat, UniProt Q62799 20-641, limits assumed) (Q62799 20-641 limits assumed): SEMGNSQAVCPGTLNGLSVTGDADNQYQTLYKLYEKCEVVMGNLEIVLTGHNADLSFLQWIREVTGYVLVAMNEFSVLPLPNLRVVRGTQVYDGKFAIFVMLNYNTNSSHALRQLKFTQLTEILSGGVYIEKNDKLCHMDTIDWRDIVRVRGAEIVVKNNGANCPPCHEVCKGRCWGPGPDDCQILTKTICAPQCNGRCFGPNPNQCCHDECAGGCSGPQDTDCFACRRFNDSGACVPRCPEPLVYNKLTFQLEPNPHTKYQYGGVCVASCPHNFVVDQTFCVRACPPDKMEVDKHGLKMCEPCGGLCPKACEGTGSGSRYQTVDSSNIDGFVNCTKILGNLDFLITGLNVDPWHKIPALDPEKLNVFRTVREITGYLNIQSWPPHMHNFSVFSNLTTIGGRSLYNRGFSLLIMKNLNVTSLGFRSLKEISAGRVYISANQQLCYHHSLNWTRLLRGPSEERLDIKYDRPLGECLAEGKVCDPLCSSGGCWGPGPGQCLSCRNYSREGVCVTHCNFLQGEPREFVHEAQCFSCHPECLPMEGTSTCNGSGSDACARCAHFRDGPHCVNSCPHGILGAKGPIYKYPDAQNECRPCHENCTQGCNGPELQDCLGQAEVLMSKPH
Sequence of mouse HER3 (Mus musculus, UniProt Q61526) (Q61526 20-1339): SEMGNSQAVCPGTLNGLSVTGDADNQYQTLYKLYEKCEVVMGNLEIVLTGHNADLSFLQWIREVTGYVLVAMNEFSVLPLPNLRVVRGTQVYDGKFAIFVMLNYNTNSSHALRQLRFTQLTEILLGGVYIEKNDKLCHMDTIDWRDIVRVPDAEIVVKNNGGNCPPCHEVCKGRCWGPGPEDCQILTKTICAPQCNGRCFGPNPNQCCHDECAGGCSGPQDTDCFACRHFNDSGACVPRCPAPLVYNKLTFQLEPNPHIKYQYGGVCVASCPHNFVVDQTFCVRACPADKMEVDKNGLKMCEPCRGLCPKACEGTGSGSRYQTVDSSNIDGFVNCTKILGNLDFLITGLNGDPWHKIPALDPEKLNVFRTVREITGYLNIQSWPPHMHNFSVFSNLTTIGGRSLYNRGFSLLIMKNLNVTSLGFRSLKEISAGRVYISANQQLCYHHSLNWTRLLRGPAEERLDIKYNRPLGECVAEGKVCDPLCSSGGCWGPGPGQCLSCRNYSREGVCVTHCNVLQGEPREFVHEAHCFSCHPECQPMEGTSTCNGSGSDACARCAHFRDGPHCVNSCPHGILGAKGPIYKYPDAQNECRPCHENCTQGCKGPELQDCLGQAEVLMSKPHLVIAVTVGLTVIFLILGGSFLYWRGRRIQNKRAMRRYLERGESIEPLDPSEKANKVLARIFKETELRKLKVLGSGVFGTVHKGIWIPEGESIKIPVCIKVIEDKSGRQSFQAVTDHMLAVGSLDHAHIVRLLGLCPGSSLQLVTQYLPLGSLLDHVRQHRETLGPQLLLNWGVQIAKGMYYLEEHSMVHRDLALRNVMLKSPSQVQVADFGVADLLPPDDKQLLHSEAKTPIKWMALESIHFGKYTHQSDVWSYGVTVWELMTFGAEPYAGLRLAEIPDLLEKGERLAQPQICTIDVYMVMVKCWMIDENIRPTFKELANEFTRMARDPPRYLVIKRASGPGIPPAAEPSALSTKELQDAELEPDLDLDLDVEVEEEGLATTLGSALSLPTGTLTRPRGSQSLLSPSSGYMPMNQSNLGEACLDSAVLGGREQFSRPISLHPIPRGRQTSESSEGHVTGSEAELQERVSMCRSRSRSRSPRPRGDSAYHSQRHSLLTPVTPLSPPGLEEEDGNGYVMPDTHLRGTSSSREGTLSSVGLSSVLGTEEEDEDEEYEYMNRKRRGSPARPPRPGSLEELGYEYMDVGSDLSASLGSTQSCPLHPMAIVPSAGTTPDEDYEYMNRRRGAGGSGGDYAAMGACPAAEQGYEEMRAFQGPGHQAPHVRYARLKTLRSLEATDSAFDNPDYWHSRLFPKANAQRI
Sequence of rat HER3 (Rattus norvegicus, UniProt Q62799) (Q62799 20-1339): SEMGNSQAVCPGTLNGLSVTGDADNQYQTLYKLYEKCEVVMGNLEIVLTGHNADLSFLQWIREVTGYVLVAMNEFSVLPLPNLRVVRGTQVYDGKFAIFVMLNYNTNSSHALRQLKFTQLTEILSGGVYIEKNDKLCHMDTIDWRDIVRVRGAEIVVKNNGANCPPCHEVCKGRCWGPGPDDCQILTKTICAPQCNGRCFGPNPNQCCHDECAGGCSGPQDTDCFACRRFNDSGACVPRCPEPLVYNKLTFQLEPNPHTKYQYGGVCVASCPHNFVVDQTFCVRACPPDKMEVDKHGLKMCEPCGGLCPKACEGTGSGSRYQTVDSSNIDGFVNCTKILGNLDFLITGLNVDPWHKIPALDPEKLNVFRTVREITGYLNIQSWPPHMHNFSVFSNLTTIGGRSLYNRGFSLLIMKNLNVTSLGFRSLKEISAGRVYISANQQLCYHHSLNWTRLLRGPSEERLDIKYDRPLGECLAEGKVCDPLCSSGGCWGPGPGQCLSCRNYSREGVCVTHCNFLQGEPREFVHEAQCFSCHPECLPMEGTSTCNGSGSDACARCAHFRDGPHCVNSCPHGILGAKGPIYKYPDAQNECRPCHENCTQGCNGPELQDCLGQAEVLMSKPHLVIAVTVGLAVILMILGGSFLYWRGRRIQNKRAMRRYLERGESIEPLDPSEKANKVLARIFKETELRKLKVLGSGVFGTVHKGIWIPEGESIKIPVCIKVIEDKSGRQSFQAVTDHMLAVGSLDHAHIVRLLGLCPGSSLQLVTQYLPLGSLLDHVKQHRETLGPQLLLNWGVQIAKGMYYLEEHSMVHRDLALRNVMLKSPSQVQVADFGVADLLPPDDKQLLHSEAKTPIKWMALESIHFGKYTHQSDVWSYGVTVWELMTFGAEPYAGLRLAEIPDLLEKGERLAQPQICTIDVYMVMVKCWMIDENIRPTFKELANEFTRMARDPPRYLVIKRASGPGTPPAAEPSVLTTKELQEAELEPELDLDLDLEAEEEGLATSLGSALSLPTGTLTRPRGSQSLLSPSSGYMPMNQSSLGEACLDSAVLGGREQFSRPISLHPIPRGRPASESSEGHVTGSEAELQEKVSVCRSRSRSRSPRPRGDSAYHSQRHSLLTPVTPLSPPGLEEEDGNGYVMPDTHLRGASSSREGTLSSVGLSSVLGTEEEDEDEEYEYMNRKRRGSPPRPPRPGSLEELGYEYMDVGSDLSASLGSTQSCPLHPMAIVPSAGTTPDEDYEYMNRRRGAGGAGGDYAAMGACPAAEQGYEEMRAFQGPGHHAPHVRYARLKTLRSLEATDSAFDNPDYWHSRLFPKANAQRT

binding result [1]: no binding
EC50 (human HER3-huFc [2]): 0.164 nM and 0.0245 µg/mL
EC50 (cynomolgus monkey HER3 [3]): 0.185 nM and 0.0278 µg/mL
binding result [4]: no binding
EC50 (human HER3-huFc [5]): 0.11 nM and 0.0165 µg/mL
B1: murine 3F8 antibody (antibody, V domains shown)
VH: DVQLQESGPGLVKPSQSLSLTCSVTGYSITSAYYWNWIRQFPGDKLEWMGYISYDGRNNFNPSLKNRISITRDTSKNQFFLKLNSVTSGDTATYYCARDGDYDYFDYWGQGTTLTVSS
VL: DIQMTQTTSSLSASLGDRVTISCRASQDISNYLNWYQQKPDGTFKLLIYYTSILHSGVPSRFSGSGSGTDYSLTISNLEQEDIATYFCQQGDTLPPTFGAGTKLELK
notes: Mouse hybridoma antibody, made by hybridoma or recombinantly; also called m3F8
binding result (human HER2-ex-huFc): no binding (tested: about 10^1.2 nM (about 16 nM))
binding result (human EGFR-his): no binding (tested: about 10^1.2 nM (about 16 nM))
binding result (mouse HER3 [6]): no binding (tested: about 10^1.2 nM (about 15 nM))
binding result (rat HER3 [7]): no binding (tested: about 10^1.2 nM (about 15 nM))

recognition of human HER2 (human HER2): did not recognize
recognition of human EGFR (human EGFR): did not recognize
recognition of rat HER3 (rat HER3 [12]): did not recognize
recognition of mouse HER3 (mouse HER3 [13]): did not recognize
recognition of human HER3 (HER3; ELISA): only recognized HER3
EC50 (ng/mL) huHER3 (HER3; Table 1): 16.50 ng/mL
HillSlope huHER3 (HER3; Table 1): 1.04
EC50 (ng/mL) Human HER3 (HER3; Table 2): 24.525 ng/mL
HillSlope Human HER3 (HER3; Table 2): 1.015
binding to SP2/0-HER3 cells (SP2/0-HER3 cells): specifically bound
EC50 (ng/mL) Cynomolgus monkey HER3 (cynomolgus monkey HER3 [14]): 27.825 ng/mL
B2: murine 3F8: murine anti-HER3 antibody 3F8 from hybridoma; VL SEQ ID NO: 15, VH SEQ ID NO: 16 (antibody, V domains shown)
VH: B1 VH
VL: B1 VL
time within which most was taken up ([8]; 37° C.): ≤ 1 h
internalization into the cell ([8]; 37° C. for 1 or 4 h vs ice control): rapidly internalized
tumor growth [9]: significantly inhibited the tumor growth
binding to other cells [10]: did not bind
HER2 protein level [11]: no effect
total HER3 protein level [11]: no effect
phosphorylation level of HER3 protein ([11]; NRG1 100 ng/mL, antibody 10 μg/mL): reduced the phosphorylation level
